T1: Abp1, P15891
T1 sequence (P15891 535-592, looked up): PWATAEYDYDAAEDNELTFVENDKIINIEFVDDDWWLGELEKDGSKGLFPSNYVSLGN

T2: Bbc1, P47068
T2 sequence (P47068 1-78, looked up): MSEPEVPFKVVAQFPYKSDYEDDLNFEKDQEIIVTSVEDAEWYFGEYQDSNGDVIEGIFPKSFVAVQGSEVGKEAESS

T3: Boi1, P38041
T3 sequence (P38041 1-86, looked up): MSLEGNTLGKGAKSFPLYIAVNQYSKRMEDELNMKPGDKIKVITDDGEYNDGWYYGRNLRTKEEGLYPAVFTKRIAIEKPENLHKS

T4: Boi2, P39969
T4 sequence (P39969 32-116, looked up): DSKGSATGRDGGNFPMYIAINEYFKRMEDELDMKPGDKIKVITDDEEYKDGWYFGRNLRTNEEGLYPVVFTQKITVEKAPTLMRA

T5: Bud14, P27637
T5 sequence (P27637 247-328, looked up): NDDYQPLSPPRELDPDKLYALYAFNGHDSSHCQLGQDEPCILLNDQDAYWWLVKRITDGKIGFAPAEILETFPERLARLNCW

T6: Bzz1-1, P38822
T6 sequence (P38822 478-572, looked up): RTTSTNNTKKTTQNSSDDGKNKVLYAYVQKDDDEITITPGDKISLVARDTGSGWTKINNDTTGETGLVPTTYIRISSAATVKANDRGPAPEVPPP

T7: Bzz1-2, P38822
T7 sequence (P38822 568-633, looked up): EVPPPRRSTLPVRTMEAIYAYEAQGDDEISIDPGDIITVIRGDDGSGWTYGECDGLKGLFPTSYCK

T8: Cdc25, P04821
T8 sequence (P04821 50-136, looked up): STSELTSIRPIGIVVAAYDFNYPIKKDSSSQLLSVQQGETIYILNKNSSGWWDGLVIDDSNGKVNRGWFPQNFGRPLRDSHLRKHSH

T9: Cyk3, Q07533
T9 sequence (Q07533 1-83, looked up): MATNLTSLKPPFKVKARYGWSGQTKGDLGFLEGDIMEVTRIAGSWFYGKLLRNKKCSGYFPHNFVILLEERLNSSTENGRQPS

T10: Fus1, P11710
T10 sequence (P11710 432-512, looked up): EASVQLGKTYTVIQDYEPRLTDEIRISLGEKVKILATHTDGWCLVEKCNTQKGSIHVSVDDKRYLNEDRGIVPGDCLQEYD

T11: Hof1, Q05080
T11 sequence (Q05080 590-669, looked up): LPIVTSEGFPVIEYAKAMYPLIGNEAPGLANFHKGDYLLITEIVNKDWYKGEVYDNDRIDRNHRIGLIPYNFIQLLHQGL

T12: Hse1, P38753
T12 sequence (P38753 208-285, looked up): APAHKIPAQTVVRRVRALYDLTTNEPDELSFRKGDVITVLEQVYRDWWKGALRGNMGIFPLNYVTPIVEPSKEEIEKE

T13: Lsb1, P53281
T13 sequence (P53281 45-122, looked up): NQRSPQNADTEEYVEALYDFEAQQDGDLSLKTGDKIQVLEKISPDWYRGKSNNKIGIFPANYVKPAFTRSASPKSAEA

T14: Lsb3, P43603
T14 sequence (P43603 385-451, looked up): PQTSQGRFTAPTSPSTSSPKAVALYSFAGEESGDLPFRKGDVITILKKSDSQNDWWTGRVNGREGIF

T15: Lsb4, P32793
T15 sequence (P32793 402-468, looked up): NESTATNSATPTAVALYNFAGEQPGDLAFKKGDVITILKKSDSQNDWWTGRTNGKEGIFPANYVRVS

T16: Myo5, Q04439
T16 sequence (Q04439 1072-1160, looked up): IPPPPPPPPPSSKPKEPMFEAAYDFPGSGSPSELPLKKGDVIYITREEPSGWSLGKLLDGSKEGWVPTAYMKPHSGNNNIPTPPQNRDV

T17: Nbp2, Q12163
T17 sequence (Q12163 103-180, looked up): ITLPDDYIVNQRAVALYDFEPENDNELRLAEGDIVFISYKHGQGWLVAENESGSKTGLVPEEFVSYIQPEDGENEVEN

T18: Pex13, P80667
T18 sequence (P80667 295-386, looked up): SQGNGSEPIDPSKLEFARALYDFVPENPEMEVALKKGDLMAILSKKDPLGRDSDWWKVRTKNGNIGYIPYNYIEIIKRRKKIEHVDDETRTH

T19: Pin3, Q06449
T19 sequence (Q06449 53-122, looked up): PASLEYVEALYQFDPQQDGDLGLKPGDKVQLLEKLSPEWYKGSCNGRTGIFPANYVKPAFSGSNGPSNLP

T20: Sla1-2, P32790
T20 sequence (P32790 60-140, looked up): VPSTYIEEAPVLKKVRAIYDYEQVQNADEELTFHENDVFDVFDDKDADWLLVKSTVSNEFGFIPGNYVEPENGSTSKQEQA

T21: Sla1-3, P32790
T21 sequence (P32790 344-424, looked up): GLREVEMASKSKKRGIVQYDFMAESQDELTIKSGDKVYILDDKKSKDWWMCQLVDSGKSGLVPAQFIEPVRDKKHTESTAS


Key:
Assay in all cases: SPOT array
Abp1, P15891 = target: T1, Abp1, P15891; settings: median of control spots 935
Bbc1, P47068 = target: T2, Bbc1, P47068; settings: median of control spots 796
Bem1-1, P29366 = settings: median of control spots 4282
Chain of Bem1-1, P29366 (P29366 55-141): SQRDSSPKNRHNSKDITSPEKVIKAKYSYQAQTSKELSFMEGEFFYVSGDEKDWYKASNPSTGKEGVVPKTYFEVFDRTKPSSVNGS

Bem1-2, P29366 = settings: median of control spots 4347
Chain of Bem1-2, P29366 (P29366 139-227): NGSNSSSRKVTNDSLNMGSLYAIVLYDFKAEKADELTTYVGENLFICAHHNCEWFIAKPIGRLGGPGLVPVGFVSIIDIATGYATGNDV

Boi1, P38041 = target: T3, Boi1, P38041; settings: median of control spots 1162
Boi2, P39969 = target: T4, Boi2, P39969; settings: median of control spots 1161
Bud14, P27637 = target: T5, Bud14, P27637; settings: median of control spots 956
Bzz1-1, P38822 = target: T6, Bzz1-1, P38822; settings: median of control spots 4446
Bzz1-2, P38822 = target: T7, Bzz1-2, P38822; settings: median of control spots 4538
Cdc25, P04821 = target: T8, Cdc25, P04821; settings: median of control spots 969
Cyk3, Q07533 = target: T9, Cyk3, Q07533; settings: median of control spots 1451
Fus1, P11710 = target: T10, Fus1, P11710; settings: median of control spots 1200
GST = settings: median of control spots 978
Hof1, Q05080 = target: T11, Hof1, Q05080; settings: median of control spots 4086
Hse1, P38753 = target: T12, Hse1, P38753; settings: median of control spots 1727
Lsb1, P53281 = target: T13, Lsb1, P53281; settings: median of control spots 388
Lsb3, P43603 = target: T14, Lsb3, P43603; settings: median of control spots 406
Lsb4, P32793 = target: T15, Lsb4, P32793; settings: median of control spots 397
Myo3, P36006 = settings: median of control spots 468
Myo5, Q04439 = target: T16, Myo5, Q04439; settings: median of control spots 471
Nbp2, Q12163 = target: T17, Nbp2, Q12163; settings: median of control spots 357
Pex13, P80667 = target: T18, Pex13, P80667; settings: median of control spots 1341
Pin3, Q06449 = target: T19, Pin3, Q06449; settings: median of control spots 2171
Rvs167, P39743 = settings: median of control spots 2707
Chain of Rvs167, P39743 (P39743 419-482): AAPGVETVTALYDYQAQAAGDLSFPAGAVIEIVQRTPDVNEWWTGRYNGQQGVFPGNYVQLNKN

Sho1, P40073 = settings: median of control spots 1148
Chain of Sho1, P40073 (P40073 287-367): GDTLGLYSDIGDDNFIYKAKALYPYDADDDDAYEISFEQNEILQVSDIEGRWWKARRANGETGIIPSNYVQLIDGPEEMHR

Sla1-2, P32790 = target: T20, Sla1-2, P32790; settings: median of control spots 712
Sla1-3, P32790 = target: T21, Sla1-3, P32790; settings: median of control spots 5475

Binder | SPOT intensity (Abp1, P15891) | SPOT intensity (Bbc1, P47068) | SPOT intensity (Bem1-1, P29366) | SPOT intensity (Bem1-2, P29366) | SPOT intensity (Boi1, P38041) | SPOT intensity (Boi2, P39969) | SPOT intensity (Bud14, P27637) | SPOT intensity (Bzz1-1, P38822) | SPOT intensity (Bzz1-2, P38822) | SPOT intensity (Cdc25, P04821) | SPOT intensity (Cyk3, Q07533) | SPOT intensity (Fus1, P11710) | SPOT intensity (GST) | SPOT intensity (Hof1, Q05080) | SPOT intensity (Hse1, P38753) | SPOT intensity (Lsb1, P53281) | SPOT intensity (Lsb3, P43603) | SPOT intensity (Lsb4, P32793) | SPOT intensity (Myo3, P36006) | SPOT intensity (Myo5, Q04439) | also measured
LKRITSPPLPPRADS | 40 | 33 | 0 | 0 | 1 | 0 | 3 | 0 | 6 | 0 | 0 | 0 | 0 | 520 | 38 | 892 | 566 | 700 | 75 | 4 | SPOT intensity (Nbp2, Q12163): 0; SPOT intensity (Pex13, P80667): 145; SPOT intensity (Pin3, Q06449): 11; SPOT intensity (Rvs167, P39743): 4040; SPOT intensity (Sho1, P40073): 65; SPOT intensity (Sla1-2, P32790): 0; SPOT intensity (Sla1-3, P32790): 0
TTAPALPSLPPPPLL | 0 | 0 | 0 | 0 | 0 | 0 | 0 | 0 | 2 | 0 | 0 | 0 | 0 | 6110 | 0 | 0 | 0 | 0 | 728 | 651 | SPOT intensity (Nbp2, Q12163): 0; SPOT intensity (Pex13, P80667): 4; SPOT intensity (Pin3, Q06449): 0; SPOT intensity (Rvs167, P39743): 0; SPOT intensity (Sho1, P40073): 0; SPOT intensity (Sla1-2, P32790): 0; SPOT intensity (Sla1-3, P32790): 0
ISNFVPPNLPMRRFK | 129 | 199 | 1 | 7 | 0 | 0 | 8 | 1 | 19 | 0 | 0 | 0 | 1 | 5 | 72 | 63 | 588 | 452 | 59 | 37 | SPOT intensity (Nbp2, Q12163): 1; SPOT intensity (Pex13, P80667): 671; SPOT intensity (Pin3, Q06449): 217; SPOT intensity (Rvs167, P39743): 2140; SPOT intensity (Sho1, P40073): 65; SPOT intensity (Sla1-2, P32790): 39; SPOT intensity (Sla1-3, P32790): 3
DDEDVPPQLPTRTKS | 0 | 5 | 0 | 3 | 2 | 1 | 1 | 0 | 0 | 0 | 0 | 0 | 1 | 0 | 2 | 58 | 556 | 897 | 0 | 0 | SPOT intensity (Nbp2, Q12163): 0; SPOT intensity (Pex13, P80667): 97; SPOT intensity (Pin3, Q06449): 2; SPOT intensity (Rvs167, P39743): 1260; SPOT intensity (Sho1, P40073): 0; SPOT intensity (Sla1-2, P32790): 0; SPOT intensity (Sla1-3, P32790): 1

Second part, led by results:

SPOT intensity (Abp1, P15891) | SPOT intensity (Bbc1, P47068) | SPOT intensity (Bem1-1, P29366) | SPOT intensity (Bem1-2, P29366) | SPOT intensity (Boi1, P38041) | SPOT intensity (Boi2, P39969) | SPOT intensity (Bud14, P27637) | SPOT intensity (Bzz1-1, P38822) | SPOT intensity (Bzz1-2, P38822) | SPOT intensity (Cdc25, P04821) | SPOT intensity (Cyk3, Q07533) | SPOT intensity (Fus1, P11710) | SPOT intensity (GST) | SPOT intensity (Hof1, Q05080) | SPOT intensity (Hse1, P38753) | SPOT intensity (Lsb1, P53281) | SPOT intensity (Lsb3, P43603) | SPOT intensity (Lsb4, P32793) | SPOT intensity (Myo3, P36006) | SPOT intensity (Myo5, Q04439) | Binder | also measured
48 | 33 | 0 | 11 | 0 | 0 | 1 | 0 | 8 | 0 | 0 | 0 | 0 | 425 | 750 | 1110 | 892 | 743 | 129 | 206 | TTNRGPPPLPPRANV | SPOT intensity (Nbp2, Q12163): 0; SPOT intensity (Pex13, P80667): 470; SPOT intensity (Pin3, Q06449): 48; SPOT intensity (Rvs167, P39743): 4620; SPOT intensity (Sho1, P40073): 58; SPOT intensity (Sla1-2, P32790): 0; SPOT intensity (Sla1-3, P32790): 1
0 | 9 | 0 | 3 | 0 | 0 | 0 | 4 | 3 | 0 | 0 | 0 | 0 | 0 | 0 | 32 | 683 | 590 | 0 | 0 | EEEEEHPPLPARRKS | SPOT intensity (Nbp2, Q12163): 1; SPOT intensity (Pex13, P80667): 155; SPOT intensity (Pin3, Q06449): 0; SPOT intensity (Rvs167, P39743): 222; SPOT intensity (Sho1, P40073): 0; SPOT intensity (Sla1-2, P32790): 0; SPOT intensity (Sla1-3, P32790): 1

Reference: article PMC2756588
